Common to all, as to assay type: biochemical
Series [1] can be described thus: Stereoselectivity analysis of CPMK reduction (chiral liquid chromatography, Table 1). The note with it: product CPMA from CPMK. The protocol: (§1) In an embodiment of the present disclosure, the (R)- and (S)-CPMA is chromatographed by taking 100 μL reaction solution, adding 500 μL ethyl acetate, shaking for 1-2 min, centrifuging at 12,000 rpm for 2-5 min, placing a supernatant into a centrifuge tube, and after an organic phase is naturally volatilized completely, adding 500 μL chromatographic pure ethanol for chiral liquid chromatography of a conversion rate and an ee value. The specific chromatographic conditions are as follows: Daicel Chiralcel OB-H (5 μm, 250 mm×4.6 mm) liquid chromatography column, mobile phases are n-hexane: ethanol: ethanolamine (90:10:0.01, v/v/v), the flow rate is 1 mL/min, the column temperature is 30° C., the UV detection wavelength is 254 nm, the injection volume is 10 μL, and the retention time for (R)-CPMA and that for (S)-CPMA are 11.14 min and 12.34 min respectively.
Method for determining optical purity ee:
As: molar concentration of (S)-CPMA obtained by liquid chromatography; and AR: molar concentration of (R)-CPMA obtained by liquid chromatography.
The activity of KpADH at different substrate concentrations and coenzyme concentrations was determined, and a double reciprocal curve was made based on the reciprocal of activity and substrate concentration to calculate kinetic parameters.

Series [2] in a line: Substrate specificity: reduction of prochiral carbonyl compound (Table 2). The text has this:
The reduction on prochiral carbonyl compounds by the alcohol dehydrogenase mutants obtained in Example 2 was studied, and the studied prochiral carbonyl compounds include (4-chlorophenyl)-(pyridin-2-yl)-methanone (CPMK), phenyl-(pyridin-2-yl)-methanone, (4-chlorophenyl)-(phenyl)-methanone, (4-bromophenyl)-(phenyl)-methanone, (4-fluorophenyl)-(pyridin-2-yl)-methanone, (4-methoxyphenyl)-(phenyl)-methanone, acetophenone, 4-chloroacetophenone and 2-(4-chlorophenyl)acetyl chloride.

Series [3] in a line: 20 mL biocatalytic system: asymmetric reduction of CPMK. The method, then:
as §1
A 20 mL biocatalytic system was established: 100 mM potassium phosphate buffer (pH 7.0), and the alcohol dehydrogenase mutants M6 and M7 obtained in Example 2 as well as wild KpADH 10 g/L, CPMK 100 mM, 200 mM and 500 mM were added (substrate added in batches). […]

B1: M2: alcohol dehydrogenase mutant: valine for glutamic acid at position 214 (E214V) of SEQ ID No. 2 (protein)
chain: MSVLISGASGYIAKHIVRVLLEQNYKVIGTVRSQDKADKLLKQYNNPNLSYEIVPEIANLDAFDDIFKKHGKEIKYVIHAASPVNFGAKDLEKDLVIPAINGTKNMFEAIKKYAPDTVERVVMTASYASIMTPHRQNDPTLTLDEETWNPVTEENAYENVFTAYCASKTFAEKEAWKFVKENSDAVKFKLTTIHPSFVFGPQNFDEDVTKKLNVTCEIINGLLHAPFDTKVEKTHFSQFIDVRDVAKTHVLGFQKDELINQRLLLCNGAFSQQDIVNVFNEDFPELKGQFPPEDKDTDLNKGVTGCKIDNEKTKKLLAFEFTPFHKTIHDTVYQILHKEGRV
modifications: Protein translated from synthetic DNA
The molecule B1 displayed an ee in series [1] of 92.3%. Moreover, the “ee value of product” value in series [2] (substrate drawing 1 (CPMK)) is 92.3%; in series [2] (substrate drawing 2) it was 30.6%; in series [2] (substrate drawing 3) it was 87.9%; in series [2] (substrate drawing 4), 95.5%; in series [2] (substrate drawing 5) it was 0.56%; in series [2] (substrate drawing 6) it was 23.2%. Further, the “ee value of product” value in series [2] (substrate drawing 7) stood at 45.3%; in series [2] (substrate drawing 8), 94.9%; in series [2] (substrate drawing 9), 91.2%.

B2: M3: alcohol dehydrogenase mutant E214G, S237C of SEQ ID No. 2 (protein)
chain: MSVLISGASGYIAKHIVRVLLEQNYKVIGTVRSQDKADKLLKQYNNPNLSYEIVPEIANLDAFDDIFKKHGKEIKYVIHAASPVNFGAKDLEKDLVIPAINGTKNMFEAIKKYAPDTVERVVMTASYASIMTPHRQNDPTLTLDEETWNPVTEENAYENVFTAYCASKTFAEKEAWKFVKENSDAVKFKLTTIHPSFVFGPQNFDEDVTKKLNGTCEIINGLLHAPFDTKVEKTHFCQFIDVRDVAKTHVLGFQKDELINQRLLLCNGAFSQQDIVNVFNEDFPELKGQFPPEDKDTDLNKGVTGCKIDNEKTKKLLAFEFTPFHKTIHDTVYQILHKEGRV
modifications: Protein translated from synthetic DNA
The molecule B2 registered an ee in series [1] of 51.8%. In addition, the “ee value of product” value in series [2] (substrate drawing 1 (CPMK)) is listed as 65.4%; in series [2] (substrate drawing 2), 36.5%; in series [2] (substrate drawing 3), 33.2%; in series [2] (substrate drawing 4), 63.3%; in series [2] (substrate drawing 5), 45.6%; in series [2] (substrate drawing 6) it was 80.6%. The “ee value of product” value in series [2] (substrate drawing 7) amounted to 95.3%; in series [2] (substrate drawing 8), 88.9%; in series [2] (substrate drawing 9), 99.8%.

B3: M7: alcohol dehydrogenase mutant E214V, T215S of SEQ ID No. 2 (protein)
chain: MSVLISGASGYIAKHIVRVLLEQNYKVIGTVRSQDKADKLLKQYNNPNLSYEIVPEIANLDAFDDIFKKHGKEIKYVIHAASPVNFGAKDLEKDLVIPAINGTKNMFEAIKKYAPDTVERVVMTASYASIMTPHRQNDPTLTLDEETWNPVTEENAYENVFTAYCASKTFAEKEAWKFVKENSDAVKFKLTTIHPSFVFGPQNFDEDVTKKLNVSCEIINGLLHAPFDTKVEKTHFSQFIDVRDVAKTHVLGFQKDELINQRLLLCNGAFSQQDIVNVFNEDFPELKGQFPPEDKDTDLNKGVTGCKIDNEKTKKLLAFEFTPFHKTIHDTVYQILHKEGRV
modifications: Protein translated from synthetic DNA
For the molecule B3, in series [3] (20 mL biocatalytic system, enzyme 10 g/L, 30° C., pH 7.5), the “ee value of final reduction product” value was 99.7%. Besides, the Conversion rate stood at 34.0% in series [3] (CPMK 100 mM, reaction time 1 h); 40.8% in series [3] (CPMK 100 mM, reaction time 2 h); 41.5% in series [3] (CPMK 100 mM, reaction time 3 h); 46.5% in series [3] (CPMK 100 mM, reaction time 4 h); 58.7% in series [3] (CPMK 100 mM, reaction time 6 h); 69.0% in series [3] (CPMK 100 mM, reaction time 8 h). The Conversion rate amounted to 99.7% in series [3] (CPMK 100 mM, reaction time 12 h); 99.7% in series [3] (CPMK 100 mM, reaction time 24 h); 20.9% in series [3] (CPMK 200 mM, reaction time 1 h); 33.1% in series [3] (CPMK 200 mM, reaction time 2 h); 48.1% in series [3] (CPMK 200 mM, reaction time 3 h); 55.2% in series [3] (CPMK 200 mM, reaction time 4 h). Moreover, the Conversion rate is reported as 77.4% in series [3] (CPMK 200 mM, reaction time 6 h); 86.3% in series [3] (CPMK 200 mM, reaction time 8 h); 92.2% in series [3] (CPMK 200 mM, reaction time 12 h); 99.7% in series [3] (CPMK 200 mM, reaction time 24 h); 10.8% in series [3] (CPMK 500 mM, reaction time 1 h); 21.1% in series [3] (CPMK 500 mM, reaction time 2 h). The Conversion rate in series [3] (CPMK 500 mM, reaction time 3 h) is reported as 38.7%; in series [3] (CPMK 500 mM, reaction time 4 h), 43.2%; in series [3] (CPMK 500 mM, reaction time 6 h) it was 62.1%; in series [3] (CPMK 500 mM, reaction time 8 h), 70.7%; in series [3] (CPMK 500 mM, reaction time 12 h), 89.9%; in series [3] (CPMK 500 mM, reaction time 24 h), 99.4%. Also, in series [3] (CPMK concentration 200 mM), the “time required to achieve a conversion rate close to 99.9%” value amounted to 24 h. In addition, the “ee value of product” value is recorded as 11.9% in series [2] (substrate drawing 2); 99.4% in series [2] (substrate drawing 3); 9.22% in series [2] (substrate drawing 5); 45.7% in series [2] (substrate drawing 6); 51.3% in series [2] (substrate drawing 7); 95.1% in series [2] (substrate drawing 8). For the same molecule, the “ee value of product” value in series [2] (substrate drawing 9) is given as 77.5%.

B4: M1: alcohol dehydrogenase mutant: glycine for glutamic acid at position 214 (E214G) of SEQ ID No. 2 (protein)
chain: MSVLISGASGYIAKHIVRVLLEQNYKVIGTVRSQDKADKLLKQYNNPNLSYEIVPEIANLDAFDDIFKKHGKEIKYVIHAASPVNFGAKDLEKDLVIPAINGTKNMFEAIKKYAPDTVERVVMTASYASIMTPHRQNDPTLTLDEETWNPVTEENAYENVFTAYCASKTFAEKEAWKFVKENSDAVKFKLTTIHPSFVFGPQNFDEDVTKKLNGTCEIINGLLHAPFDTKVEKTHFSQFIDVRDVAKTHVLGFQKDELINQRLLLCNGAFSQQDIVNVFNEDFPELKGQFPPEDKDTDLNKGVTGCKIDNEKTKKLLAFEFTPFHKTIHDTVYQILHKEGRV
modifications: Protein translated from synthetic DNA
In turn, B4 yielded an ee in series [1] of 3.29%. Also, the “ee value of product” value came out at 24.2% in series [2] (substrate drawing 1 (CPMK)); 41.0% in series [2] (substrate drawing 2); 63.2% in series [2] (substrate drawing 3); 49.3% in series [2] (substrate drawing 4); 7.51% in series [2] (substrate drawing 5); 42.7% in series [2] (substrate drawing 6). Further, the “ee value of product” value is 68.5% in series [2] (substrate drawing 7), 86.3% in series [2] (substrate drawing 8) and 94.5% in series [2] (substrate drawing 9).

B5: M4: alcohol dehydrogenase mutant E214G, S237C, Q136N of SEQ ID No. 2 (protein)
chain: MSVLISGASGYIAKHIVRVLLEQNYKVIGTVRSQDKADKLLKQYNNPNLSYEIVPEIANLDAFDDIFKKHGKEIKYVIHAASPVNFGAKDLEKDLVIPAINGTKNMFEAIKKYAPDTVERVVMTASYASIMTPHRNNDPTLTLDEETWNPVTEENAYENVFTAYCASKTFAEKEAWKFVKENSDAVKFKLTTIHPSFVFGPQNFDEDVTKKLNGTCEIINGLLHAPFDTKVEKTHFCQFIDVRDVAKTHVLGFQKDELINQRLLLCNGAFSQQDIVNVFNEDFPELKGQFPPEDKDTDLNKGVTGCKIDNEKTKKLLAFEFTPFHKTIHDTVYQILHKEGRV
modifications: Protein translated from synthetic DNA
Take B5: the ee in series [1] is on record as 88.0%. The “ee value of product” value in series [2] (substrate drawing 1 (CPMK)) is reported as 80.6%; in series [2] (substrate drawing 2), 20.7%; in series [2] (substrate drawing 3) it was 38.6%; in series [2] (substrate drawing 4), 66.5%; in series [2] (substrate drawing 5) it was 49.1%; in series [2] (substrate drawing 6), 82.6%. The “ee value of product” value in series [2] (substrate drawing 7) stood at 91.5%; in series [2] (substrate drawing 8), 57.7%; in series [2] (substrate drawing 9) it was 99.3%.
